Test results: publication PMC12436594

Biological target: PvLDH (lactate dehydrogenase) (Plasmodium vivax) (UniProt Q4PRK9)
Assay: flow cytometry (Ni-NTA beads)
[1] = dUCOTc replaces every T after the 20-nt forward primer

Sequence | Kd [1] [nM] | Kd (dUCOTc (COT-carboxylate-modified dU) replaces every T after the 20-nt forward primer) [nM]
CACTCACGTCAGTGACATGCAGGTCCTCTCGCCCCCAGTGACTTGCGTGGTCAGAAATTTCGCACCAC [N15 COTc aptamer] | 5.6 | –
CACTCACGTCAGTGACATGCCAAGCGAAGTTGTGCGCCCGCGTCGTGGTCGTCAGAAATTTCGCACCAC [N5 COTc aptamer] | 14.4 | –
CACTCACGTCAGTGACATGCGCATTACGCAGCGCTGCGCAGCGAGTACCGGTCAGAAATTTCGCACCAC [N0 COTc aptamer] | – | 3.7
